According to patent US20220251148A1:

target: purified MHC (MHC II molecules purified by affinity chromatography); assay: competition with a radiolabelled known MHC binding peptide for purified MHC

Binder | IC50 [µM]
LQLQPFDQPRLPWPQ [P1f (SEQ ID NO: 37), modified alpha gliadin 15-mer peptide] | 5.44
LQLQPFWQPKLPGPQ [P1g (SEQ ID NO: 38), modified alpha gliadin 15-mer peptide] | 11.2
PYPHPRLPYTQPQPF [P3c (SEQ ID NO: 46), modified alpha gliadin 15-mer peptide] | 2.99
PYSQPESPYMQPQPF [P3d (SEQ ID NO: 47), modified alpha gliadin 15-mer peptide] | 1.99
KLPYPQGRLPGPQPQ [P2g (SEQ ID NO: 43), modified alpha gliadin 15-mer peptide] | 3.75
PYPHPWLRGPQPQPF [P3f (SEQ ID NO: 48), modified alpha gliadin 15-mer peptide] | 0.879
